{"source": "paper PMC8018780", "about": "“Two peptides targeting endothelial receptors are internalized into murine brain endothelial cells” (PLoS ONE, 2021)", "target": "recombinant mouse transferrin receptor (TfR) protein (mouse) (UniProt Q62351)", "sequence (Q62351 whole entry)": "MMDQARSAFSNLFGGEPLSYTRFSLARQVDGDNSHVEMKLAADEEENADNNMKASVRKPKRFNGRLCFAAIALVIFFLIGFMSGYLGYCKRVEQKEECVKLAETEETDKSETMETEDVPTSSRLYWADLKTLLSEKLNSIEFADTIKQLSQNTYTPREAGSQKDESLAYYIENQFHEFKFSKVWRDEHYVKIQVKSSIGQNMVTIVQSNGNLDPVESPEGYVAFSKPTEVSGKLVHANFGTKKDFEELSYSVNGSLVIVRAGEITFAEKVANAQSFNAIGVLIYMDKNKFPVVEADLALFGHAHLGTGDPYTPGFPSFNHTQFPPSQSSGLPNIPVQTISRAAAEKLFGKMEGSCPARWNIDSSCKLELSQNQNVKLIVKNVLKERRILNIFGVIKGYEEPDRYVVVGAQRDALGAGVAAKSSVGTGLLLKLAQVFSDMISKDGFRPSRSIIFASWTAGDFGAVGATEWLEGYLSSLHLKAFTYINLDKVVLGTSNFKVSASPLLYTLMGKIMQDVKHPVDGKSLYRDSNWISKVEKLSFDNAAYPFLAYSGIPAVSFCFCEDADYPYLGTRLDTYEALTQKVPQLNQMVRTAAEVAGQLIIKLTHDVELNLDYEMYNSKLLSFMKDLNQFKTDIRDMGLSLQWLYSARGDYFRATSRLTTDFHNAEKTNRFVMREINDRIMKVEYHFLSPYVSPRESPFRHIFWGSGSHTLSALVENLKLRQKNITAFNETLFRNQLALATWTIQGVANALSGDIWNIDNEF", "test": "SPR; Biacore 3000, CM5 chip, receptors immobilised by EDC/NHS coupling (TfR 58 fmol/mm^2, LRP-1 0.025 fmol/mm^2); peptides injected at 0.25-4 uM, 5 uL/min, 25°C, 10 mM HEPES, 150 mM NaCl, 1.5 mM CaCl2, 1 mM EGTA, 0.005% Tween 20, pH 7.4; Langmuir 1:1 model, global fit", "note": "Ends that are not written are not given here.", "data": [{"binder": "GYRPVHNIRGHWAPGK-NH2", "note": "[GYR (peptide 2)]", "values": [{"measurement": "Kd", "result": 1000, "unit": "µM"}]}]}
